Test results as given in publication PMC9385563 (Molecules and Cells, 2022).
Where a chain is given by its changes, count along the chain named. Names may count otherwise. Blank lines part the entries; values can stand above or below the molecule they belong to.

How the values were obtained:
ABCB6-∆TMD0 [1] = target: T1, ABCB6-∆TMD0 (Homo sapiens, UniProt Q9NP58); experiment: microscale thermophoresis, initial fluorescence change; assay type: binding
T1 sequence (Q9NP58 206-842): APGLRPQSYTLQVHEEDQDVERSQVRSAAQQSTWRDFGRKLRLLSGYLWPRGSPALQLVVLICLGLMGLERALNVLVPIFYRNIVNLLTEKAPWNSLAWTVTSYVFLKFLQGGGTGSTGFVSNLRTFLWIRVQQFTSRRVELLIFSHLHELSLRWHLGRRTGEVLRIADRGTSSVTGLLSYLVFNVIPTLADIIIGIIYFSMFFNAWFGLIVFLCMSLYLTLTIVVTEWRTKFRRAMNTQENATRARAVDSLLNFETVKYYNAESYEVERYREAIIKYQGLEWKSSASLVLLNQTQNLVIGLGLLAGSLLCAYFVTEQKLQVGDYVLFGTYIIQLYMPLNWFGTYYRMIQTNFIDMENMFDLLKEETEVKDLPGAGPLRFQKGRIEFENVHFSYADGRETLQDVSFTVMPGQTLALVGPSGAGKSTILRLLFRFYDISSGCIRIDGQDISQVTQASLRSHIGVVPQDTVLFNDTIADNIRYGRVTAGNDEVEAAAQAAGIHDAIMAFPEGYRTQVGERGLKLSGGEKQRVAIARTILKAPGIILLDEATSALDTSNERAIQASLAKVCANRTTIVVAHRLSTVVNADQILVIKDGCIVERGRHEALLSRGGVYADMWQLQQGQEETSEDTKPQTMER

ABCB6-∆TMD0 [2] = target: T2, ABCB6-∆TMD0 (Homo sapiens, UniProt Q9NP58, DEL318-324); experiment: as above; assay type: binding
T2 sequence (Q9NP58 with tags, fused parts or gaps DEL318-324): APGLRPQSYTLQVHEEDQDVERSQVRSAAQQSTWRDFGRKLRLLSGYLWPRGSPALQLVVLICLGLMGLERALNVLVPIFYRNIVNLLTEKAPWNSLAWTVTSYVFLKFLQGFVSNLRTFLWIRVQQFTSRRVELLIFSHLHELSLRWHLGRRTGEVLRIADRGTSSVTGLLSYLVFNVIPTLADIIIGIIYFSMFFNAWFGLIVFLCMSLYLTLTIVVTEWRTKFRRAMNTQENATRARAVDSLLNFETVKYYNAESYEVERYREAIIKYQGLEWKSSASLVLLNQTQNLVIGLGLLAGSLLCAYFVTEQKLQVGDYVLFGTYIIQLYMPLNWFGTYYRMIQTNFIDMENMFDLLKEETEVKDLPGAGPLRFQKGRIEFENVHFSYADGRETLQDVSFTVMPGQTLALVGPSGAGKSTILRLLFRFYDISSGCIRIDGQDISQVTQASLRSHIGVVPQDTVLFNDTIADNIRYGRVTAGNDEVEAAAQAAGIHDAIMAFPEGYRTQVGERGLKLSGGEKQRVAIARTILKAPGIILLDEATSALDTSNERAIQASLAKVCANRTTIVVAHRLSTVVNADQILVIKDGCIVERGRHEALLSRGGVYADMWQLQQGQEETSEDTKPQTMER

ABCB6-∆TMD0 [3] = target: T3, ABCB6-∆TMD0 (Homo sapiens, UniProt Q9NP58, R435A/R439A/R552A); experiment: as above; assay type: binding
T3 sequence (Q9NP58 206-842 R435A/R439A/R552A): T1 sequence (Q9NP58 206-842) with R230A, R234A, R347A

purified protein [4] = substrate: C=CC1=C(C)C2=Cc3c(C=C)c(C)c4[n]3[Fe]([Cl])[n]3c(c(C)c(CCC(=O)O)c3=CC3=NC(=C4)C(C)=C3CCC(=O)O)=CC1=N2; experiment: purified protein; settings: Km from stimulation of ATP hydrolysis, 37°C
purified protein [5] = substrate: CC1=C(CCC(=O)O)c2cc3nc(cc4[nH]c(cc5[nH]c(cc1n2)c(C)c5CCC(=O)O)c(CCC(=O)O)c4C)C(CCC(=O)O)=C3C; experiment: purified protein; settings: Km from stimulation of ATP hydrolysis, 37°C, Cymal-6/CHS
cryo-EM structure = target: the molecule itself; experiment: cryo-EM structure

- Kd (ABCB6-∆TMD0 [1]): 8.2 ± 0.1 µM
- Kd (ABCB6-∆TMD0 [2]): 14.1 ± 0.9 µM
- Kd (ABCB6-∆TMD0 [3]): 17.8 ± 3 µM
Molecule: CC1=C(CCC(=O)O)c2cc3nc(cc4[nH]c(cc5[nH]c(cc1n2)c(C)c5CCC(=O)O)c(CCC(=O)O)c4C)C(CCC(=O)O)=C3C [CPIII]

B1: ABCB6-∆TMD0 (core region of human ABCB6, residues 206-842) (domain or fragment, UniProt Q9NP58 206-842, looked up)
chain: T1 sequence (Q9NP58 206-842)
- Km (purified protein [4]; with 1 mM GSH, Cymal-6/CHS): 3 ± 0.3 µM
- kcat (purified protein [4]; with 1 mM GSH, Cymal-6/CHS): 36 min^–1
- Km (purified protein [5]): 19 ± 3.7 µM
- kcat (purified protein [5]): 25 min^–1
- stoichiometry N (cryo-EM structure): 2

B2: ABCB6-∆TMD0 (Homo sapiens; Y550A) (protein)
chain: T1 sequence (Q9NP58 206-842) with Y345A
- Km (purified protein [4]; with GSH): 10 µM
